Assay results reported in patent US20190002534A1 (UNIVERSITY OF MASSACHUSETTS, published 2019).

B1: anti-rabies virus human monoclonal antibody 2B10 (antibody, V domains shown)
VH: EVQLVQSGGGLVHPGGSLRLSCAGSGFTFSYFAMHWVRQAPGKGLEWVSTIGTGGGTYYADSVKGRFTISRDNAKNSLYLQMNSLRAEDMAVYYCARDNALRSFDWLFYSFDYWGQGTLVTVSS
VL: EIVLTQSPGTLSLSPGERATLSCRASQSISSSYLAWYQQKPGQAPRLLIYGASSRATGIPDRFSGSGSGTDFTLTISRLEPEDFAVYYCQRYGSSYTFGQGTKLEIK
B2: anti-rabies virus human monoclonal antibody 17C7 (antibody, V domains shown)
VH: QVQLVESGGGVVQPGRSLRLSCAASGFTFSTYAMHWVRQAPGKGLEWVAVVSYDGRTKDYADSVKGRFTISRDNSKNTLYLQMNSLRTEDTAVYFCARERFSGAYFDYWGQGTLVTVSS
VL: EIVLTQSPATLSLSPGERATLSCRASQSVSSYLAWYQQKPGQAPRLLIYDASNRATGIPARFSGSGSGTDFTLTISSLEPEDFAVYSCQQRNNWPPTFGGGTKVEIK

How the values were obtained:
[1] = target: T1, G glycoprotein of rabies virus street isolate DR Brazil (rabies virus, isolate DR Brazil …); assay: cell-based or functional assay
[2] = target: T1, G glycoprotein of rabies virus street …; assay: cell-based or functional assay; remark: listed apart in the source

Binder | EC50 neutralization by RFFIT [1] [µg/mL] | EC50 neutralization by RFFIT (Test A) [2] [µg/mL]
B1 | 0.004 | 0.004
B2 | 0.222 | 0.222
